Test results published in patent US20040224408A1, “THAP proteins as nuclear receptors for chemokines and roles in transcriptional regulation, cell proliferation and cell differentiation” (published 2004).

T1: human THAP1 (THanatos (death)-Associated Protein-1), full length (human, UniProt Q9NVV9 1-213)
T1 construct: also called hTHAP1; FLJ10477
T1 sequence: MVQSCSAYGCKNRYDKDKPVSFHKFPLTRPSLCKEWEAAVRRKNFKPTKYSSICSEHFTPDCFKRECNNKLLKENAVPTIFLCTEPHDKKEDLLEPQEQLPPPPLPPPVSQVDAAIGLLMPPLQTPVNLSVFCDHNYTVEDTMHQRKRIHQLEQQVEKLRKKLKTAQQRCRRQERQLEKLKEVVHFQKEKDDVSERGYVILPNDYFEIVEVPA

T2: GST-THAP1 fusion protein (pGEX-2T-THAP1) (human, UniProt Q5RCE4 1-213 (Pongo abelii entry))
T2 construct: Expressed in E. coli DH5alpha and immobilized on glutathione sepharose; also called GST-THAP1 wild-type; not shown: Glutathione S-transferase (GST) encoded by the pGEX-2T prokaryotic expression vector (Amersham Pharmacia Biotech); N-ter
T2 sequence: T1 sequence

T3: THAP1ΔQRCRR mutant (deletion of residues 168-172) (human, UniProt Q9NVV9 1-213)
T3 construct: Tested as a Gal4-BD fusion (pGBKT7), as in vitro translated protein and as an EGFP fusion; also called THAP1?QRCRR; THAP1?(QRCRR)
T3 sequence: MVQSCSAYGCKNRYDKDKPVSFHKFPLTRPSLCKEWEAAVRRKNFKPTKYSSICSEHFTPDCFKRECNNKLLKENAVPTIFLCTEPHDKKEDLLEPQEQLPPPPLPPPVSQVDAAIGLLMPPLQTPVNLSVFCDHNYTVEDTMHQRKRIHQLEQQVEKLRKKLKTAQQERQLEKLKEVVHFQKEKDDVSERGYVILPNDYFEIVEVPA

T4: THAP1-N1 deletion mutant (amino acids 1-90) (human, UniProt Q9NVV9 1-90)
T4 construct: Tested as a Gal4-BD or Gal4-AD fusion, as in vitro translated 35S-labelled protein and as an EGFP fusion
T4 sequence: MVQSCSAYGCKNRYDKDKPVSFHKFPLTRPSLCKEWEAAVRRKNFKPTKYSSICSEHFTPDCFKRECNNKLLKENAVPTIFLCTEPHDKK

T5: THAP1-C2 deletion mutant (amino acids 120-213) (human, UniProt Q9NVV9 120-213)
T5 construct: Tested as a Gal4-BD or Gal4-AD fusion, as in vitro translated 35S-labelled protein and as an EGFP fusion
T5 sequence: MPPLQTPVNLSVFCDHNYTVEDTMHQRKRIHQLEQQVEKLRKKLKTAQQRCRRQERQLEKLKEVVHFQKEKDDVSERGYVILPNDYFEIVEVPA

T6: THAP1-N3 deletion mutant (amino acids 1-192) (human, UniProt Q9NVV9 1-192)
T6 construct: Tested as a Gal4-BD or Gal4-AD fusion, as in vitro translated 35S-labelled protein and as an EGFP fusion
T6 sequence: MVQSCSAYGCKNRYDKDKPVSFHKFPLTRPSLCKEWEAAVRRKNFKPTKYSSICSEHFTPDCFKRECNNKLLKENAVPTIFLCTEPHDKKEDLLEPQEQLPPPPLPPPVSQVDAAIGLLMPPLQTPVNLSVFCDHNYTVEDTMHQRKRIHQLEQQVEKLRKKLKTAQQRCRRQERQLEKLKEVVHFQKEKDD

T7: THAP1-N2 deletion mutant (amino acids 1-166) (human, UniProt Q9NVV9 1-166)
T7 construct: Tested as a Gal4-BD or Gal4-AD fusion, as in vitro translated 35S-labelled protein and as an EGFP fusion
T7 sequence: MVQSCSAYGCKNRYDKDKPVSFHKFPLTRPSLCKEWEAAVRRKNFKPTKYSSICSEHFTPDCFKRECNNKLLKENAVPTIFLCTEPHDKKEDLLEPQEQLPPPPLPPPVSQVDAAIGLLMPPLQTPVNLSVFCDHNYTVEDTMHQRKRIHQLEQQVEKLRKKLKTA

T8: THAP1-C1 deletion mutant (amino acids 90-213) (human, UniProt Q9NVV9 90-213)
T8 construct: Tested as a Gal4-BD or Gal4-AD fusion, as in vitro translated 35S-labelled protein and as an EGFP fusion; also called THAP1ΔTHAP; THAP1?THAP
T8 sequence: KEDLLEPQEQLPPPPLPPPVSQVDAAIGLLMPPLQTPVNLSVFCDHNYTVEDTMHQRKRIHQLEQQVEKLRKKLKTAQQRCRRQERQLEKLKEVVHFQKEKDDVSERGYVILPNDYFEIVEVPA

T9: THAP1-C3 deletion mutant (amino acids 143-213) (human, UniProt Q9NVV9 143-213)
T9 construct: Tested as a Gal4-BD or Gal4-AD fusion, as in vitro translated 35S-labelled protein and as an EGFP fusion
T9 sequence: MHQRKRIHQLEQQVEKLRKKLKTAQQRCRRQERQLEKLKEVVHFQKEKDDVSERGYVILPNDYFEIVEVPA

B1: human cytokine IFNγ (amino acids 21-166) (ligand)
chain: CYCQDPYVKEAENLKKYFNAGHSDVADNGTLFLGILKNWKEESDRKIMQSQIVSFYFKLFKNFKDDQSIQKSVETIKEDMNVKFFNSNKKKRDDFEKLTNYSVTDLNVQRKAIHELIQVMAELSPAAKTGKRKRSQMLFQGRRASQ
notes: Negative control; The range is stated on the GenBank entry; Tested as a Gal4-BD fusion (pGBKT7-IFNγ) and as in vitro translated 35S-labelled protein from that vector; also called interferon gamma; hIFNγ
B2: Par4 leucine zipper/death domain (Par4DD, amino acids 250-342) (other)
chain: GFPRYNRDANVSGTLVSSSTLEKKIEDLEKEVVTERQENLRLVRLMQDKEEMIGKLKEEIDLLNRDLDDIEDENEQLKQENKTLLKVVGQLTR
notes: also called myc-Par4DD; mycPar4DD

Key:
human THAP1 (THanatos …) [1] = target: T1, human THAP1 (THanatos …); assay: yeast two-hybrid, pGADT7-THAP1 with pGBKT7-IFNγ
Text: […]

[2] = target: T2, GST-THAP1 fusion protein (pGEX-2T-THAP1); assay: GST pull-down, immobilized GST-THAP1, in vitro translated 35S-labelled IFNγ
Method: To confirm the interaction observed in yeast two-hybrid system, we performed in vitro GST pull down assays. THAP1, expressed as a GST-tagged fusion protein and immobilized on glutathione sepharose, was incubated with radiolabeled chemokines that were translated in vitro.
In vitro-translated chemokines were generated with the TNT-coupled reticulocyte lysate system (Promega, Madison, Wis., USA) using as templates pGBKT7-CCL21, -CCL19, -CXCL9, -CXCL10 and CXCL11 chemokine vectors (see Example 32) or pCMV-SPORT6-CCL5 plasmid (Image clone No. 4185200). In vitro-translated IFNγ cytokine was generated similarly using as template plasmid pGBKT7-IFNγ. A 25 μvolume of ³⁵S-labelled chemokine was incubated with immobilized GST-THAP1 or GST proteins overnight at 4° C., in the following binding buffer: 10 mM NaPO4 pH 8.0, 140 mM NaCl, 3 mM MgCl₂, 1 mM dithiothreitol (DTT), 0.05% NP40, and 0.2 mM phenylmethyl sulphonyl fluoride (PMSF), 1 mM Na vanadate, 50 mM β-glycerophosphate, 25 μg/ml chymotrypsine, 5 μg/ml aprotinin, and 10 μg/ml leupeptin. Beads were then washed 5 times in 1 ml binding buffer. Bound proteins were eluted with 2×Laemmli SDS-PAGE sample buffer, fractionated by 10% SDS-PAGE and visualized by fluorography using Amplify (Amersham Pharmacia Biotech). GST/THAP1 specifically bound to chemokines CCL21, CCL19, CCL5, CXCL9, CXCL10 and CXCL11 but not cytokine IFNγ (FIGS. 19 and 20). […]

[3] = target: T10, Glutathione S-transferase (GST) control protein (pGEX-2T) (UniProt P08515 1-218 = GST); assay: GST pull-down, immobilized GST control, in vitro translated 35S-labelled IFNγ
T10 construct: Negative control immobilized on glutathione sepharose; also called GST beads; immobilized GST alone
Method: In vitro-translated chemokines were generated with the TNT-coupled reticulocyte lysate system (Promega, Madison, Wis., USA) using as templates pGBKT7-CCL21, -CCL19, -CXCL9, -CXCL10 and CXCL11 chemokine vectors (see Example 32) or pCMV-SPORT6-CCL5 plasmid (Image clone No. 4185200). In vitro-translated IFNγ cytokine was generated similarly using as template plasmid pGBKT7-IFNγ. A 25 μvolume of ³⁵S-labelled chemokine was incubated with immobilized GST-THAP1 or GST proteins overnight at 4° C., in the following binding buffer: 10 mM NaPO4 pH 8.0, 140 mM NaCl, 3 mM MgCl₂, 1 mM dithiothreitol (DTT), 0.05% NP40, and 0.2 mM phenylmethyl sulphonyl fluoride (PMSF), 1 mM Na vanadate, 50 mM β-glycerophosphate, 25 μg/ml chymotrypsine, 5 μg/ml aprotinin, and 10 μg/ml leupeptin. Beads were then washed 5 times in 1 ml binding buffer. Bound proteins were eluted with 2×Laemmli SDS-PAGE sample buffer, fractionated by 10% SDS-PAGE and visualized by fluorography using Amplify (Amersham Pharmacia Biotech). GST/THAP1 specifically bound to chemokines CCL21, CCL19, CCL5, CXCL9, CXCL10 and CXCL11 but not cytokine IFNγ (FIGS. 19 and 20). […] CXCL10 also bound to immobilized GST-THAP1 (indicated by ++ in the column labelled “In vitro binding to GST-THAP1”).

[4] = target: T3, THAP1ΔQRCRR mutant (deletion of …); assay: yeast two-hybrid
Method: (§1) Two-hybrid interaction between THAP1 mutants and Par4DD was tested by cotransformation of AH109 with pGBKT7-THAP1-C1, -C2, -C3, -N1, -N2 or -N3 and pGADT7-Par4DD and selection of transformants by His and Ade double auxotrophy according to manufacturer's instructions ([…] two-hybrid system 3, Clontech).
for mutant THAP1ΔQRCRR. The resulting PCR fragments were digested with EcoRI and BamHI, and cloned in frame downstream of the Gal4 Binding Domain (Gal4-BD) in pGBKT7 two-hybrid vector (Clontech) to generate pGBKT7-THAP1-RR/AA and −Δ(QRCRR), or downstream of the Enhanced Green Fluorescent Protein (EGFP) ORF in pEGFP.C2 vector (Clontech) to generate pEGFP.C2-THAP1-RR/AA and −Δ(QRCRR). THAP1 RR/AA and THAP1ΔQRCRR THAP1 mutants were then tested in the three THAP1/Par4 interaction assays (two-hybrid assay, in vitro THAP1/Par4 interaction assay, in vivo THAP1/Par4 interaction assay) as described above for the THAP1-C1, -C2, -C3, -N1, -N2 or -N3 mutants.

[5] = target: T4, THAP1-N1 deletion mutant (amino acids …); assay: yeast two-hybrid, pGBKT7-THAP1 mutant with pGADT7-Par4DD
Method: as §1

[6] = target: T5, THAP1-C2 deletion mutant (amino acids …); assay: as above
Method: as §1

[7] = target: T6, THAP1-N3 deletion mutant (amino acids …); assay: as above
Method: as §1

[8] = target: T7, THAP1-N2 deletion mutant (amino acids …); assay: as above
Method: as §1

[9] = target: T8, THAP1-C1 deletion mutant (amino acids …); assay: as above
Method: as §1

[10] = target: T9, THAP1-C3 deletion mutant (amino acids …); assay: as above
Method: as §1

human THAP1 (THanatos …) [11] = target: T1, human THAP1 (THanatos …); assay: yeast two-hybrid, both orientations (His/Ade selection)
Text: We then examined whether the leucine zipper/death domain at the C-terminus of Par4, previously shown to be involved in Par4 binding to WT-1 and aPKC, was required for the interaction between THAP1 and Par4. Two Par4 mutants were constructed for that purpose, Par4A and Par4DD. Par4A lacks the leucine zipper/death domain while Par4DD contains this domain. pGBKT7-Par4A(amino acids 1-276) and pGADT7-Par4A. were constructed by sub-cloning a EcoRI-BglII fragment from pGADT7-Par4 into the EcoRI and BamHI sites of pGBKT7 and pGADT7. Par4DD (amino acids 250-342) was amplified by PCR, using pGBKT7-Par4 as template, with primers Par4.4 (5′-[…]-3′) (SEQ ID NO: 193) and Par4.5, and cloned into the EcoRI and BamHI sites of pGBKT7 and pGADT7 to obtain pGBKT7-Par4DD and pGADT7-Par4DD. Two-hybrid interaction between THAP1 and Par4 mutants was tested by cotransformation of AH109 with pGBKT7-THAP1 and pGADT7-Par4A or pGADT7-Par4DD and selection of transformants by His and Ade double auxotrophy according to manufacturer's instructions ([…] two-hybrid system 3, Clontech). […] Similar results were obtained when two-hybrid experiments were performed in the opposite orientation using Par4 or Par4 mutants (Par4A and Par4DD) as baits instead of THAP1 (FIG. 3A).

T10 sequence (P08515 whole entry): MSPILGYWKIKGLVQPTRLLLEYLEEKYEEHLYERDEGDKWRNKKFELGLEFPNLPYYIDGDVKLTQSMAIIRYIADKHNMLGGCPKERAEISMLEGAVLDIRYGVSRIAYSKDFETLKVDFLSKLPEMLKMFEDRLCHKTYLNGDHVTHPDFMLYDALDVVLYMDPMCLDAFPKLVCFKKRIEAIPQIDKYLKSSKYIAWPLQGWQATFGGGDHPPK

Binder	binding result (human THAP1 (THanatos …) [1])	binding result [2]	binding result [3]	binding result [4]	binding result [5]	binding result [6]	binding result [7]	binding result [8]	binding result [9]	binding result [10]	binding result (human THAP1 (THanatos …) [11])
B1	no binding	no binding	no binding	–	–	–	–	–	–	–	–
B2	–	–	–	no binding	no binding	binds	binds	no binding	binds	binds	binds
